Results: US20230398224A1
Positions of bridges follow the written chain, without caps; N, C: chain ends. Non-standard residues stand in square brackets, D forms with d. Groups on a side chain read outwards from the residue. int‑CC7 = mannose-6-phosphonate M6PR ligand; Bip = N[C@@H](Cc1ccc(-c2ccccc2)cc1)C(=O)O; NMeA = CN[C@@H](C)C(=O)O

Biological target: Purified recombinant full length human PCSK9 with C-terminal biotinylated Avitag (human) (UniProt Q8NBP7)
Test: SPR, ProteOn XPR36; biotinylated human PCSK9 on NeutrAvidin NLC chip

Sequence of Purified recombinant full length human PCSK9 with C-terminal biotinylated Avitag (human) (Q8NBP7 31-692): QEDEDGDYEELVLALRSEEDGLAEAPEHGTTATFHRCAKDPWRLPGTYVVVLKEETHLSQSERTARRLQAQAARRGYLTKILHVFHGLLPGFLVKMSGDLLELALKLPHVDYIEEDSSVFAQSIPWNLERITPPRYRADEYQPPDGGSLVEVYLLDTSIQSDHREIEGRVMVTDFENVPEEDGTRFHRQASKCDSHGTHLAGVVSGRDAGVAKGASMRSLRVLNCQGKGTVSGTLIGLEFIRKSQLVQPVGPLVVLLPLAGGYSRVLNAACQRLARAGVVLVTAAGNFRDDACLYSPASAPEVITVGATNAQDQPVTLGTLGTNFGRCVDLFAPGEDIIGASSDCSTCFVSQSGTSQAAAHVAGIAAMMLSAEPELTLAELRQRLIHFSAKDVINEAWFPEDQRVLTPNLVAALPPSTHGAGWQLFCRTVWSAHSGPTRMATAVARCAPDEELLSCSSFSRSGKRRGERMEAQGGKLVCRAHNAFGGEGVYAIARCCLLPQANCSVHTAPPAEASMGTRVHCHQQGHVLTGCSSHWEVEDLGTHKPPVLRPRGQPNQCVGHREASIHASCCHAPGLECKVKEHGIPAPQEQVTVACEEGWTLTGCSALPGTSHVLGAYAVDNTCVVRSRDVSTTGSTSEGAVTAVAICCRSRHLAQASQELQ

| Kd [nM] | Binder |
| --- | --- |
| 7.7 | {CH2CO}-FVPTT[Bip][NMeA][Bip][NMeA]EAPCGK-NH2 (thioether N-13; not fully specified (residue 15); also: further groups not given here) [Bifunctional compound (BFC-3)] |
| 4.9 | {CH2CO}-FVPTT[Bip][NMeA][Bip][NMeA]EAPCGK([Lys(4-oxopentanoyl)-int‑CC7])-NH2 (thioether N-13; not fully specified; also: further groups not given here) [Bifunctional compound (BFC-8)] |
| 7.4 | {CH2CO}-FVPTT[Bip][NMeA][Bip][NMeA]EAPCGK([Lys(4-oxopentanoyl)-int‑CC7])-NH2 (thioether N-13; not fully specified; also: further groups not given here) [Bifunctional compound (BFC-9)] |
